Source: the DeepSol protein solubility set

Experiment: soluble on expression in E. coli; label from the status in PepcDB or PDB records

| Sequence | soluble on expression in E. coli |
| --- | --- |
| MGSDKIHHHHHHMATYNYPEFGAGLWHFANYIDRYAVDGYGPALSTIDQINAAKEVGELSYVDLPYPFTPGVTLSEVKDALKDAGLKAIGITPEIYLQKWSRGAFTNPDPAARAAAFELMHESAGIVRELGANYVKVWPGQDGWDYPFQVSHKNLWKLAVDGMRDLAGANPDVKFAIEYKPREPRVKMTWDSAARTLLGIEDIGLDNVGVLLDFGHALYGGESPADSAQLIIDRGRLFGMDVNDNLRGWDDDLVVGTVHMTEIFEFFYVLKINNWQGVWQLDQFPFRENHVEAAQLSIRFLKHIYRALDKLDIPALQAAQEAQNPLQAQRIVQDALLSSITVSE | not soluble |
| MGSDKIHHHHHHEILKVLRKNNDFQNWEEIKNRLHPIIIKHVEGEPVYQFFDTLNDNSFEKNGQLISLSTQPINSFVPYHIHNYVEMMVVLSGSCVIKTANEAITLNENEIIIIGCKTIHKVEPIDDKTIMIKIALKRAAFSLEDLVFLTHSHNAQSVSSIVFSLLSSDDSHGAFNVFRTHHDVHVVNKIYNIISEYYCPDDYSNQIIKLEILELFIRLIRIASKDAVFQTQKEVQNNNEIDLLTLLLYIERNYKTINLKSMAKYFNFNPNYLSSILREKTGYTFIKLVHLQRINVAAEYLALTNTPVEGISLAVGYENPSYFYKMFKKYMGCSPKEYRQKQIAG | not soluble |
| AFTCHCRRSCYSTEYSYGTCTVMGINHRFCCL | soluble |
| MGSDKIHHHHHHMSSNSRVYGIVPSKRLGRSLGVSPIPFKTCTYSCVYCQLGRTTNFTVKRQTFFPLKVFEEELKGFVKRHRYDFDVVSIVGEGEPTLYTPLDALIDLCKSITGKPVVLITNGSLFWSEKVRKEAKLSDIIMPTLSAWDEKSFRTIHKPHKNLSFQKVFEGLKKFRREYSGEIWLEVMLVKGLNDFALEELKEKISQVESDRVYVNVPVRPPAEGWVEPPDEETIEKAKELFNAASIETPAASRFIAAGEGIDAVLNVIKRHPMNEEEVRDLLTSQKIDPKPVLEKLRSCKNVKIIEYSGRRYYRYTTAE | not soluble |
| MSLGKMVIGFAHPDFNDMFLGFLLAGVQAYEAEQTNVEVVYVDAENDSDGQIAQVEDLIAQGVDAIMAIPVDLIATEFIVDRAQQAGVPVVLINRDSVEREDAYVGSDSLQAGTIQMEEVAAVLKGKGKIAIMNGQMGHTAQINRTLGNKQVVDQYPGMEVVIEGTGGWSREKGKELMESWIESGQTFDAVVANNDEMAIGAIMAAEEAGIVDELVFAGIDGTPDALDYMSKGKLTISVFQDAKGQGQTGLEQAIKLAKGESAEKMTNIPYETITKRNVDEGHHHHHH | soluble |
| MPIPLYLQDWWLDAVCGFDEWMAFVLEEEGTVSGVMPCYMPVPGHISMPPFTQFLGSYSFIGINEDSTTSFRAHRRVHDMLRSMLPPHKSFMVQYSKDFTDWLPYYWQGYSQTTRYTYRIDLSPGIDVVRMAIRPDAMKKIRKAERDGLRCTSATVDDLLRLCRISMSRQEAKGFAAETLQRLAEVAIERHAGEIVGCEDSEGRLLAAVFLAHDHNTAYTIASGQIREGQGRNAGAFVLYEAIWRACEMEGIHTFDFEGSMLEGIEGFFRSFGGIQTPYFRLSKGRIGLYGRLRRKWRAFHDTGQQKQV | not soluble |
| MTEETKPIKIAVIRCDIVSEACPGVGCFKAFNERKSYFKEYDEKAQMIAFFTCGGCSGRRVYRLLKALKKHNPDVVHLSSCMLMEDSYPRCPNIDTIRKTIQDAGIKVVEGTHH | not soluble |
| MSLGNNYAAKVNDQEISRGQFENAFNSERNRMQQQLGDQYSELAANEGYMKTLRQQVLNRLIDEALLDQYARELKLGISDEQVKQAIFATPAFQVDGKFDNSRYNGILNQMGMTADQYAQALRNQLTTQQLINGVAGTDFMLKGETDELAALVAQQRVVREATIDVNALAAKQPVTEQEIASYYEQNKNNFMTPEQFRVSYIKLVAATMQQPVSDADIQSYYDQHQDQFTQPQRTRYSIIQTKTEDEAKAVLDELNKGGDFAALAKEKSADIISARNGGDMGWLEDATIPDELKNAGLKEKGQLSGVIKSSVGFLIVRLDDIQPAKVKSLDEVRDDIAAKVKHEKALDAYYALQQKVSDAASNDTESLAGAEQAAGVKATQTGWFSKDNLPEELNFKPVADAIFNGGLVGENGASGINSDIITVDGDRAFVLRVSEHKPEAVKPLADVQEQVKALVQHNKAEQQAKVDAEKLLVDLKAGKGAEAMQAAGLKFGEPKTLSRSGRDPISQAAFALPLPAKDKPSYGMATDMQGNVVLLALDEVKQGSMPEDQKKAMVQGITQNNAQIVFEALMSNLRKEAKIKIGDALEQQEGHHHHHH | soluble |
| FPTPKPVPAPQQAAQQQAVTASAEAALAPATPITVTTDTVQAVIDEKSGDLRRLTLLKYKATGDENKPFILFGDGKEYTYVAQSELLDAQGNNILKGIGFSAPKKQYSLEGDKVEVRLSAPETRGLKIDKVYTFTKGSYLVNVRFDIANGSGQTANLSADYRIVRDHSEPEGQGYFTHSYVGPVVYTPEGNFQKVSFSDLDDDAKSGKSEAEYIRKTPTGWLGMIEHHFMSTWILQPKGRQSVCAAGECNIDIKRRNDKLYSTSVSVPLAAIQNGAKAEASINLYAGPQTTSVIANIADNLQLAKDYGKVHWFASPLFWLLNQLHNIIGN | not soluble |
| MKRREVLQAGMALGGLAGLGRALAQGGFTLTLVHTNDTHAHLEPVELTLSGEKTPVGGVARRVALFDRVWARAKNPLFLDAGDVFQGTLYFNQYRGLADRYFMHRLRYRAMALGNHEFDLGPGPLADFLKGARFKVVSANVDASREPRLKGLFAPYAVVVVGGERVGIIGLTTPDTREISNPGPTVAFLDPYESAQKAVYELLAKGVNKIVVLSHLGYGEDLKLARRLVGVQVIVGGHSHTLLGSFPHKELSPAGPYPTVVKNPEGKDVLVVQAWEWGKVVGLLEVTFDAKGELLAYKGEALLMTPEAAPEDFFAKEALLAYAQPVMALMQQVIAEAKVDLVGERAVVRRRESNLGNLITDGMLWKTRNAGTQIALQNGGGIRASIPKGPITVGKVYEVLPFGNTLVVMDLKGKEILAALENGVSQWENTAGRFLQVSGLRYAFDLSRPAGSRVVRVEVKTEKGYVPLDLEATYRVVVNNFIANGGDGFTVLKEAQGYRVDTGFSDAESFMDYLKELKVVEAGLEGRIEVLNEPKGERPAYFAYRVPGLVGV | soluble |
| VVFVTVGTTSFDALVKAVVSQNVKDELQKRGFTHLLIQMGRGIFFPTKCDGADGSLVVDYFTFSSSIADYIRSASLVISHAGSGSIFETLKLGKPLIVVVNEDLMDNHQCELAEALEERKHLYYTRPHSLHQTLTKMELGSLVQYTPGDGTPVARIIDRFLGFPDD | not soluble |
| MGSDKIHHHHHHMNKKPLVSVYIPTHNRAELLSNAVKSVINQTYKNIEIIICNDGSGDNTDDVVNKLQKEYKDIPFVYLKNDSPMGACFSRNRCIAAASGYYLTGLDDDDYFLPNRIESLIKVCNERKIDLVCSNLIFKDGNKLKRGKNNSGVITSIDMGYENLVGNQLLTRLSYFEDVGGFDTNFPAWQDYDLWYRIIMKFGPCIKTNEATYVMDVENDRKRISTSSKAHIGYRSFIEKHSETLSEEMKSSLFIRDLINRNKKIPLKTLLSSGRKVASFKHNMRLCFPVVNSIAAFVREIKK | not soluble |
| MAMADEQFENYLVMCYDKLESKQQKFISDYNIYNFDEYCYDQDPCILQFKKNGQVLLEFSVVFIGSWSGKSNSWMWSWANENVADYARSKSNCLKDLQKITGSEVFINPLFECDQEMAYELAAFSIEYLDAEGMYMAPGERSDVFMAVMSPHAL | not soluble |
| MAHHHHHHEAVVTPWSVEGDVNYDKLIKDFGSHAIDEALLERIERVLGKKPHHFLRRGIFFSHRDLNLLLDVYESGQPFYLYTGRGPSSESMHMGHLIPFMFTKWLQDSFRVPLVIQMTDDEKFYFRNIPMEQVEAMTTENIKDIIAMGFDPELTFIFRDFDYMGCMYRTVAKIERAFTASQVRGCFGFAMEDNCGRWMFPAIQAAPSFSAAFPHIFPPSMGNVFCLIPQAIDQDPYFRLTRDIAPRLGYLKPAVIHSKFFPGLSGPKGKMSSSSGTAVLLTDTEKMVKDKINKHAFSGGGATKQEHFLLGANVEVDVPIQWLSFFLEDDEELARVKKEYMLGRIMTGEVKKLLINTITAITKTHQEKRKLVTDEDVQLFTSTRIMGPAKKAATQ | soluble |
| MDPFGTYKTAISARATDKAILKKSQDGGIISASYIYGLENGLLDGVIVANTEDGFKAAPKIATTPEEVLSAAGTKYTVSPNVSVLKDAVREYALEKVGIVGTPCQVRAIRKLMKYPMGFRHTDSKIALVMGIFCMENFPYEGMKAIVEQYAGIRMNDVLKTDIGKGKFWVYSKSGDVKAVPLKDTHMYEQKSCHVCMDYTAELADISTGSVGSPDGWSTIFVRTAKGEEYLNKMVEAGALETKPIDDVKPGLDLVQKLALQKKEKNDKEIAHRKEIGLPVPYLEHHHHHH | not soluble |
| QFMKPFISEKSSKSLEIPLGFNEYFPAPFPITVDLLDYSGRSWTVRMKKRGEKVFLTVGWENFVKDNNLEDGKYLQFIYDRDRTFYVIIYGHNMCS | not soluble |
| TVVEEDTGGNTDLEAVRRTLLAQFEQYAKLNKKIPAEIIGSINGIAENSRLTDTVAAHLQLKLAQRQQILEIPEIGKRMEFLLAQLESELDIMQAEKRIRGRVKRQMEKSQREYYLNEQIKAIHKELGEEDENGELDALEADIKKAGMTKEAEEKCLSELKKLKMMPPMSAESTVVRNYIDTLLELPWKKKSRVSKDIAKAGLVLDADHYGLEKVKERILEYLAVQKRMDKLKGPILCLVGPPGVGKTSLGESIAKATGRKYVRMALGGVRDESEIRGHRRTYIGSMPGKILQNMAKAGVKNPLFLLDEIDKLGNDFRGDPASALLEVLDPEQNNKFADHYAEVDYDLSDVMFIATSNSLNIPTPLLDRMEIIRL | not soluble |
| MFCSFFHEKKKNILRLNIRCQRLREHDNTAKIELFKSMRRRRSSTKASRKTTMGGAAELEDEWIPSETMSGAGWKARGDRKPKDKRVPFNRPTPYQIYEALPFVRRYFMYWMKHTFDKEKLFINTFQPLKHKPYYGVPCGGIGCGAIGRDFRGGFCKFSLRPGLVEHKVDVVAADQFILSVRENDRCIYQKVLSAADVQRPSGQLSTWDFKFPKKNVHYRGLFPRSWTTFRVPELELTVVIRQVSPVLPHNYEDTTYPVCLFLIDVENGGSASREYEISVAFTFRNGTGNRRWEREAECSGVKFETEEEGLKPTTTAQEKISGVSLYHTISSMPCTYGLATTHREHTTTTVCERFDPSRNGAALWNHLKQTGDVPSCEEECLINAREMAVAVCNRFTLPPNSTKTHDYALSWDMPKVHFGSVARSYHRRYTRFFEASEAGSAADSLCVRALRLKDKWESEIEAWQSPILNHKKLPDWYKSAIFNELYFITDGGTVWFEFDENWAEHETHLSHYTKDKMKEIGRFGYLESWEYRMVNTYDVHFYASFALAELWPELEITIQSEFTDQVYHSIEKPTRFHMEGDWANVKTASRVPHDLGNPADEPWIATNAYVMHDTGKWKDLNMKYVLTSWRDYVVLSNEHEDFLFHTWPAVRMIMLEALENWDQDGDGMIENFGKADQTYDAWQMEGVSAYCGSLWLASLRVAIEMAGLMKDDETQQLFRNTLEKAKKVFIDTLWTGTYFRFCERSRSRETVMADQLCGYWFLQSVSPELADELLPNHMVRSALDTIYRLNVCKFGNGRMGAVNGMKPSGVVDREYIQADEMWTGVTYAVASLLIQQGEVEKAFHTASGSYLTCFEETGLQYQTPEALYESKFYRAIGYMRPLSIWAMQWSLKKHCGMNTSEEKLPNLVKNEKVVPESEAAIQVQKQRILGDTSEDGSSLGYVSDYHDERSIPKIATLR | not soluble |
| MGSDKIHHHHHHMTNWNLWRTLNMEYIINPCSGIKIKITRGQKIKIVDIEGGQVVDFFAEMKDDSTEFISPGVTIDCNESLRLQVGNLIYSNKYRPMFKILYDDVREHDLLHPCCRPEMYDFFYHNGENHPNCFDNINRTLGTSHQIIHPINFFMYTKVNTDGSIEVCEPLSKANDKIILEALENMTLGIAACSVSESSCNSRKCTSIKILVD | not soluble |
